Measurements as given in CN112225809A (FUZHOU CHUANGFANG PHARMACEUTICAL TECH CO LTD, dated 2021).

Experiments:
[1] = biological target: T1, hPD1/Fc of human IgG1 (fluorescently labelled) (human, UniProt Q15116 25-167, limits assumed, labelled with Alexa Fluor 488 (Example 2); printed as hPD-1/hFc-FITC in Example 5.5); assay: flow cytometry blocking assay: Alexa Fluor 488 labelled hPD1/Fc on SPC-A1-PDL1 cells
T1 construct: also called hPD-1/hFc-FITC; 荧光标记的PD1(Dimeric); not shown: Fc of human IgG1
T1 sequence (Q15116 25-167 limits assumed): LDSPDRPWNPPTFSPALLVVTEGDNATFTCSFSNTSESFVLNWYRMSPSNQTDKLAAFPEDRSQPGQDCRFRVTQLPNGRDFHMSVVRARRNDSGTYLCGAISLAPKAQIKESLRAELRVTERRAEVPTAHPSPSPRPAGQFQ

[2] = biological target: T2, Human PD1/PDCD1 Protein Biotinylated (Sinobiological, Cat.No.10377-H03H-B) (human, UniProt Q15116 25-167, biotinylated); assay: BLI (Octet Red96), biotinylated PD-1 on SA sensor, antibody in solution from 50 nM in two-fold dilutions
T2 construct: Bought reagent; also called 抗原; 人PD-1
T2 sequence (Q15116 25-167 limits assumed): as above

Binder	binding result [1]	Kd [2] [pM]	koff [2] [s⁻¹]	kon [2] [M⁻¹ s⁻¹]
UM1-56 (antibody, mouse IgG1, V domains shown, Mouse hybridoma antibody purified on Protein G; primers were designed on mouse IgG1 and kappa; also called 鼠源PD-1单克隆抗体UM1-56) VH: EVKLVESGGGLVKPGGSLKLSCAASGFTFSTYGMSWVRQTPEKRLEWVATISGGGRYTYYPDSVKGRFTISRDNAKNNLYLQMSSLRSEDTALYYCARQKGTTWFAHWGQGTLVTVSA VL: not shown	binds			
hUM1-30 (antibody, human IgG4 S228P, kappa, V domains shown, Humanised from UM1-56; also called 人源化PD-1单克隆抗体(hUM1-30); UM1-56H-1 + UM1-56K-2) VH: EVQLVESGGGLVQPGGSLRLSCAASGFTFSTYGMSWVRQAPGKGLEWVSTISGGGRYTYYPDSVKGRFTISRDNSKNTLYLQMNSLRAEDTAVYYCARQKGTTWFAHWGQGTLVTVSS VL: DIQMTQSPSSLSASVGDRVTITCRASESVDDNGISFMNWFQQKPGKAPKLLIYAASNQGSGVPSRFSGSGSGTDFTLTISSLQPEDFATYYCQQSKEVPWTFGQGTKVEIKR		3.34	5.43e-06	1.63e+06
